Assay results published in US20230383012A1 (Xencor, published 2023).

B1: XENP38514 (bispecific antibody)
heavy: EVQLLESGGGLVQPGGSLRLSCAASGFTFSVYDMSWVRQAPGKRLEWVSTISSGGSFTHYPDSVKGRFTISRDNSKNTLYLQMNSLRAEDTAVYYCVRRSLDWYFDVWGAGTTVTVSSASTKGPSVFPLAPSSKSTSGGTAALGCLVKDYFPEPVTVSWNSGALTSGVHTFPAVLQSSGLYSLSSVVTVPSSSLGTQTYICNVNHKPSDTKVDKKVEPKSCDKTHTCPPCPAPPVAGPSVFLFPPKPKDTLMISRTPEVTCVVVDVKHEDPEVKFNWYVDGVEVHNAKTKPREEEYNSTYRVVSVLTVLHQDWLNGKEYKCKVSNKALPAPIEKTISKAKGQPREPQVYTLPPSREEMTKNQVSLTCDVSGFYPSDIAVEWESDGQPENNYKTTPPVLDSDGSFFLYSKLTVDKSRWEQGDVFSCSVMHEALHNHYTQKSLSLSPGK
scFv-Fc: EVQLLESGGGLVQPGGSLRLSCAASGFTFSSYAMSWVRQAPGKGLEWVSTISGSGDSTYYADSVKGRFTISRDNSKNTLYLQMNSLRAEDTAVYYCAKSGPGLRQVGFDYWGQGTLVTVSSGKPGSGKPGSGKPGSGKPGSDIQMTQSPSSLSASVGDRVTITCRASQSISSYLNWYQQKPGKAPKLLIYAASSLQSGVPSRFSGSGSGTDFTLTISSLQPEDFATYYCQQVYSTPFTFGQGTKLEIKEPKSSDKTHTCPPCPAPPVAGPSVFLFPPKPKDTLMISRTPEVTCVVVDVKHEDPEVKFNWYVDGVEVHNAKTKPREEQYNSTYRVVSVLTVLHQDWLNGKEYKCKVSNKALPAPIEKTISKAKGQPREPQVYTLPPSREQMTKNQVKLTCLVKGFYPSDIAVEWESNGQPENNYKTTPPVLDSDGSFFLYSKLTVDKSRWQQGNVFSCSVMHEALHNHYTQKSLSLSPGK
light: EIVLTQSPGTLSLSPGERATLSCRVSSSIQSTNLHWYQQKPGQSPRPLIYGTSVLATGVPVRFSGSGSGTDYTLTISRLEPEDFAVYYCQQWSSYPLYTFGGGTKVEIKRTVAAPSVFIFPPSDEQLKSGTASVVCLLNNFYPREAKVQWKVDNALQSGNSQESVTEQDSKDSTYSLSSTLTLSKADYEKHKVYACEVTHQGLSSPVTKSFNRGEC
notes: also called αPDL1×αCD28 bsAb XENP38514
B2: PDL1 binding domain 2G4_H1.12_L1.68 (Fab, V domains shown)
VH: EVQLLESGGGLVQPGGSLRLSCAASGFTFSVYDMSWVRQAPGKRLEWVSTISSGGSFTHYPDSVKGRFTISRDNSKNTLYLQMNSLRAEDTAVYYCVRRSLDWYFDVWGAGTTVTVSS
VL: EIVLTQSPGTLSLSPGERATLSCRVSSSIQSTNLHWYQQKPGQSPRPLIYGTSNLASGVPVRFSGSGSGTDYTLTISRLEPEDFAVYYCQQWSSYPLYTFGGGTKVEIK
B3: PDL1 binding domain 2G4_H1.12_L1.14 (Fab, V domains shown)
VH: EVQLLESGGGLVQPGGSLRLSCAASGFTFSVYDMSWVRQAPGKRLEWVSTISSGGSFTHYPDSVKGRFTISRDNSKNTLYLQMNSLRAEDTAVYYCVRRSLDWYFDVWGAGTTVTVSS
VL: EIVLTQSPGTLSLSPGERATLSCRVSSSIQSSNLHWYQQKPGQSPRPLIYGTSNLASGVPVRFSGSGSGTDYTLTISRLEPEDFAVYYCQQWSSYPLYTFGGGTKVEIK
notes: also called as in XENP40409 and XENP40706
B4: PDL1 binding domain 2G4_H1.12_L1.66 (Fab, V domains shown)
VH: EVQLLESGGGLVQPGGSLRLSCAASGFTFSVYDMSWVRQAPGKRLEWVSTISSGGSFTHYPDSVKGRFTISRDNSKNTLYLQMNSLRAEDTAVYYCVRRSLDWYFDVWGAGTTVTVSS
VL: EIVLTQSPGTLSLSPGERATLSCRVSSSIQSTNLHWYQQKPGQSPRPLIYGTSNLATGVPVRFSGSGSGTDYTLTISRLEPEDFAVYYCQQWSSYPLYTFGGGTKVEIK
B5: XENP37561 (bispecific antibody)
chain 1: EVQLLESGGGLVQPGGSLRLSCAASGFTFSSYDMSWVRQAPGKRLEWVSTISSGGSFTHYPDSVKGRFTISRDNSKNTLYLQMNSLRAEDTAVYYCVRRSGDWYFDVWGAGTTVTVSSASTKGPSVFPLAPSSKSTSGGTAALGCLVKDYFPEPVTVSWNSGALTSGVHTFPAVLQSSGLYSLSSVVTVPSSSLGTQTYICNVNHKPSDTKVDKKVEPKSCDKTHTCPPCPAPPVAGPSVFLFPPKPKDTLMISRTPEVTCVVVDVKHEDPEVKFNWYVDGVEVHNAKTKPREEEYNSTYRVVSVLTVLHQDWLNGKEYKCKVSNKALPAPIEKTISKAKGQPREPQVYTLPPSREEMTKNQVSLTCDVSGFYPSDIAVEWESDGQPENNYKTTPPVLDSDGSFFLYSKLTVDKSRWEQGDVFSCSVMHEALHNHYTQKSLSLSPGK
chain 2: not shown
chain 3: EIVLTQSPGTLSLSPGERATLSCRVSSSISSSNLHWYQQKPGQSPRPLIYGTSNLASGVPVRFSGSGSGTDYTLTISRLEPEDFAVYYCQQWSSYPLYTFGGGTKVEIKRTVAAPSVFIFPPSDEQLKSGTASVVCLLNNFYPREAKVQWKVDNALQSGNSQESVTEQDSKDSTYSLSSTLTLSKADYEKHKVYACEVTHQGLSSPVTKSFNRGEC
B6: XENP36233 (bispecific antibody)
chain 1: EVQLLESGGGLVQPGGSLRLSCAASGFTFSSYDMSWVRQAPGKRLEWVSTISSGGSFTHYPDSVKGRFTISRDNSKNTLYLQMNSLRAEDTAVYYCVRRSGDWYFDVWGAGTTVTVSSASTKGPSVFPLAPSSKSTSGGTAALGCLVKDYFPEPVTVSWNSGALTSGVHTFPAVLQSSGLYSLSSVVTVPSSSLGTQTYICNVNHKPSDTKVDKKVEPKSCDKTHTCPPCPAPPVAGPSVFLFPPKPKDTLMISRTPEVTCVVVDVKHEDPEVKFNWYVDGVEVHNAKTKPREEEYNSTYRVVSVLTVLHQDWLNGKEYKCKVSNKALPAPIEKTISKAKGQPREPQVYTLPPSREEMTKNQVSLTCDVSGFYPSDIAVEWESDGQPENNYKTTPPVLDSDGSFFLYSKLTVDKSRWEQGDVFSCSVMHEALHNHYTQKSLSLSPGK
chain 2: not shown
chain 3: EIVLTQSPGTLSLSPGERATLSCRVSSSISSSNLHWYQQKPGQSPRPLIYGTSNLASGVPVRFSGSGSGTDYTLTISRLEPEDFAVYYCQQWSSYPLYTFGGGTKVEIKRTVAAPSVFIFPPSDEQLKSGTASVVCLLNNFYPREAKVQWKVDNALQSGNSQESVTEQDSKDSTYSLSSTLTLSKADYEKHKVYACEVTHQGLSSPVTKSFNRGEC
B7: XENP37412 (bispecific antibody)
chain 1: EVQLLESGGGLVQPGGSLRLSCAASGFTFSSYDMSWVRQAPGKRLEWVSTISSGGSFTHYPDSVKGRFTISRDNSKNTLYLQMNSLRAEDTAVYYCVRRSGDWYFDVWGAGTTVTVSSASTKGPSVFPLAPSSKSTSGGTAALGCLVKDYFPEPVTVSWNSGALTSGVHTFPAVLQSSGLYSLSSVVTVPSSSLGTQTYICNVNHKPSDTKVDKKVEPKSCDKTHTCPPCPAPPVAGPSVFLFPPKPKDTLMISRTPEVTCVVVDVKHEDPEVKFNWYVDGVEVHNAKTKPREEEYNSTYRVVSVLTVLHQDWLNGKEYKCKVSNKALPAPIEKTISKAKGQPREPQVYTLPPSREEMTKNQVSLTCDVSGFYPSDIAVEWESDGQPENNYKTTPPVLDSDGSFFLYSKLTVDKSRWEQGDVFSCSVMHEALHNHYTQKSLSLSPGK
chain 2: not shown
chain 3: EIVLTQSPGTLSLSPGERATLSCRVSSSISSSNLHWYQQKPGQSPRPLIYGTSNLASGVPVRFSGSGSGTDYTLTISRLEPEDFAVYYCQQWSSYPLYTFGGGTKVEIKRTVAAPSVFIFPPSDEQLKSGTASVVCLLNNFYPREAKVQWKVDNALQSGNSQESVTEQDSKDSTYSLSSTLTLSKADYEKHKVYACEVTHQGLSSPVTKSFNRGEC
B8: XENP37560 (bispecific antibody)
chain 1: EVQLLESGGGLVQPGGSLRLSCAASGFTFSSYDMSWVRQAPGKRLEWVSTISSGGSFTHYPDSVKGRFTISRDNSKNTLYLQMNSLRAEDTAVYYCVRRSGDWYFDVWGAGTTVTVSSASTKGPSVFPLAPSSKSTSGGTAALGCLVKDYFPEPVTVSWNSGALTSGVHTFPAVLQSSGLYSLSSVVTVPSSSLGTQTYICNVNHKPSDTKVDKKVEPKSCDKTHTCPPCPAPPVAGPSVFLFPPKPKDTLMISRTPEVTCVVVDVKHEDPEVKFNWYVDGVEVHNAKTKPREEEYNSTYRVVSVLTVLHQDWLNGKEYKCKVSNKALPAPIEKTISKAKGQPREPQVYTLPPSREEMTKNQVSLTCDVSGFYPSDIAVEWESDGQPENNYKTTPPVLDSDGSFFLYSKLTVDKSRWEQGDVFSCSVMHEALHNHYTQKSLSLSPGK
chain 2: not shown
chain 3: EIVLTQSPGTLSLSPGERATLSCRVSSSISSSNLHWYQQKPGQSPRPLIYGTSNLASGVPVRFSGSGSGTDYTLTISRLEPEDFAVYYCQQWSSYPLYTFGGGTKVEIKRTVAAPSVFIFPPSDEQLKSGTASVVCLLNNFYPREAKVQWKVDNALQSGNSQESVTEQDSKDSTYSLSSTLTLSKADYEKHKVYACEVTHQGLSSPVTKSFNRGEC
B9: XENP37261 (bispecific antibody)
chain 1: EVQLLESGGGLVQPGGSLRLSCAASGFTFSSYDMSWVRQAPGKRLEWVSTISSGGSFTHYPDSVKGRFTISRDNSKNTLYLQMNSLRAEDTAVYYCVRRSGDWYFDVWGAGTTVTVSSASTKGPSVFPLAPSSKSTSGGTAALGCLVKDYFPEPVTVSWNSGALTSGVHTFPAVLQSSGLYSLSSVVTVPSSSLGTQTYICNVNHKPSDTKVDKKVEPKSCDKTHTCPPCPAPPVAGPSVFLFPPKPKDTLMISRTPEVTCVVVDVKHEDPEVKFNWYVDGVEVHNAKTKPREEEYNSTYRVVSVLTVLHQDWLNGKEYKCKVSNKALPAPIEKTISKAKGQPREPQVYTLPPSREEMTKNQVSLTCDVSGFYPSDIAVEWESDGQPENNYKTTPPVLDSDGSFFLYSKLTVDKSRWEQGDVFSCSVMHEALHNHYTQKSLSLSPGK
chain 2: not shown
chain 3: EIVLTQSPGTLSLSPGERATLSCRVSSSISSSNLHWYQQKPGQSPRPLIYGTSNLASGVPVRFSGSGSGTDYTLTISRLEPEDFAVYYCQQWSSYPLYTFGGGTKVEIKRTVAAPSVFIFPPSDEQLKSGTASVVCLLNNFYPREAKVQWKVDNALQSGNSQESVTEQDSKDSTYSLSSTLTLSKADYEKHKVYACEVTHQGLSSPVTKSFNRGEC
B10: XENP37559 (bispecific antibody)
chain 1: EVQLLESGGGLVQPGGSLRLSCAASGFTFSSYDMSWVRQAPGKRLEWVSTISSGGSFTHYPDSVKGRFTISRDNSKNTLYLQMNSLRAEDTAVYYCVRRSGDWYFDVWGAGTTVTVSSASTKGPSVFPLAPSSKSTSGGTAALGCLVKDYFPEPVTVSWNSGALTSGVHTFPAVLQSSGLYSLSSVVTVPSSSLGTQTYICNVNHKPSDTKVDKKVEPKSCDKTHTCPPCPAPPVAGPSVFLFPPKPKDTLMISRTPEVTCVVVDVKHEDPEVKFNWYVDGVEVHNAKTKPREEEYNSTYRVVSVLTVLHQDWLNGKEYKCKVSNKALPAPIEKTISKAKGQPREPQVYTLPPSREEMTKNQVSLTCDVSGFYPSDIAVEWESDGQPENNYKTTPPVLDSDGSFFLYSKLTVDKSRWEQGDVFSCSVMHEALHNHYTQKSLSLSPGK
chain 2: not shown
chain 3: EIVLTQSPGTLSLSPGERATLSCRVSSSISSSNLHWYQQKPGQSPRPLIYGTSNLASGVPVRFSGSGSGTDYTLTISRLEPEDFAVYYCQQWSSYPLYTFGGGTKVEIKRTVAAPSVFIFPPSDEQLKSGTASVVCLLNNFYPREAKVQWKVDNALQSGNSQESVTEQDSKDSTYSLSSTLTLSKADYEKHKVYACEVTHQGLSSPVTKSFNRGEC

target: T1, human PDL1 (human, UniProt Q9NZQ7 19-238); test: PDL1 binding affinity; Biacore per paragraph 695, in PDL1×CD28 bsAb
T1 construct: his-tagged in the Carterra assay; also called PDL1 antigen

First: B1
Second: B2
The Kd of the first is 4.7-fold lower: 0.17 nM for the first, 0.8 nM for the second. The first binds more tightly here.

Compared with B3, B4 is 2-fold higher in Kd: 0.42 nM for the first, 0.86 nM for the second. The first binds more tightly here.

target: T2, human CD28 antigen (human, UniProt P10747 19-152); test: CD28 binding affinity; Octet per paragraph 712, scFv in 1+1 Fab-scFv-Fc PDL1×CD28 bsAb
T2 construct: also called his-tagged CD28 antigen

Compared with B5, B6 is 6.5-fold higher in Kd: 37 nM for the first, 240 nM for the second. The first binds more tightly here.

First: B7
Second: B8
The Kd of the first is 3-fold higher: 286 nM for the first, 96 nM for the second.

First: B9
Second: B10
The Kd of the first is 5-fold lower: 36 nM for the first, 180 nM for the second.
